B1: Nephrin (Homo sapiens), O60500 (parent)
chain: MALGTTLRASLLLLGLLTEGLAQLAIPASVPRGFWALPENLTVVEGASVELRCGVSTPGSAVQWAKDGLLLGPDPRIPGFPRYRLEGDPARGEFHLHIEACDLSDDAEYECQVGRSEMGPELVSPRVILSILVPPKLLLLTPEAGTMVTWVAGQEYVVNCVSGDAKPAPDITILLSGQTISDISANVNEGSQQKLFTVEATARVTPRSSDNRQLLVCEASSPALEAPIKASFTVNVLFPPGPPVIEWPGLDEGHVRAGQSLELPCVARGGNPLATLQWLKNGQPVSTAWGTEHTQAVARSVLVMTVRPEDHGAQLSCEAHNSVSAGTQEHGITLQVTFPPSAIIILGSASQTENKNVTLSCVSKSSRPRVLLRWWLGWRQLLPMEETVMDGLHGGHISMSNLTFLARREDNGLTLTCEAFSEAFTKETFKKSLILNVKYPAQKLWIEGPPEGQKLRAGTRVRLVCLAIGGNPEPSLMWYKDSRTVTESRLPQESRRVHLGSVEKSGSTFSRELVLVTGPSDNQAKFTCKAGQLSASTQLAVQFPPTNVTILANASALRPGDALNLTCVSVSSNPPVNLSWDKEGERLEGVAAPPRRAPFKGSAAARSVLLQVSSRDHGQRVTCRAHSAELRETVSSFYRLNVLYRPEFLGEQVLVVTAVEQGEALLPVSVSANPAPEAFNWTFRGYRLSPAGGPRHRILSSGALHLWNVTRADDGLYQLHCQNSEGTAEARLRLDVHYAPTIRALQDPTEVNVGGSVDIVCTVDANPILPGMFNWERLGEDEEDQSLDDMEKISRGPTGRLRIHHAKLAQAGAYQCIVDNGVAPPARRLLRLVVRFAPQVEHPTPLTKVAAAGDSTSSATLHCRARGVPNIVFTWTKNGVPLDLQDPRYTEHTYHQGGVHSSLLTIANVSAAQDYALFTCTATNALGSDQTNIQLVSISRPDPPSGLKVVSLTPHSVGLEWKPGFDGGLPQRFCIRYEALGTPGFHYVDVVPPQATTFTLTGLQPSTRYRVWLLASNALGDSGLADKGTQLPITTPGLHQPSGEPEDQLPTEPPSGPSGLPLLPVLFALGGLLLLSNASCVGGVLWQRRLRRLAEGISEKTEAGSEEDRVRNEYEESQWTGERDTQSSTVSTTEAEPYYRSLRDFSPQLPPTQEEVSYSRGFTGEDEDMAFPGHLYDEVERTYPPSGAWGPLYDEVQMGPWDLHWPEDTYQDPRGIYDQVAGDLDTLEPDSLPFELRGHLV

Variants of B1 are the subject of assay [1]. To be noted: with nck1_human NCK1, P16333.
Variants of B1 are the subject of assay [2]. The settings on record: with nck2_human NCK2, O43639.
nck2_human NCK2, O43639, sequence (O43639 whole entry): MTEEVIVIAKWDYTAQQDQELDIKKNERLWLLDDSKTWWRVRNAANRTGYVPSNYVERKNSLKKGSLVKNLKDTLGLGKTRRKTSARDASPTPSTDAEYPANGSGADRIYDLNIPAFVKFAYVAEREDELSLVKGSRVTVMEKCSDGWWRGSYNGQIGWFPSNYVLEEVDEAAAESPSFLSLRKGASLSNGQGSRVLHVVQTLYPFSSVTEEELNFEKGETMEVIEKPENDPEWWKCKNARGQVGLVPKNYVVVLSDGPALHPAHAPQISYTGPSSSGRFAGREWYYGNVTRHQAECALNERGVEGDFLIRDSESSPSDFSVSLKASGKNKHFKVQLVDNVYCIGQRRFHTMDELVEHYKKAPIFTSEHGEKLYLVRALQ
Assay [3] covers variants of B1. To be noted: with wasp_mouse Was.
Assay [4] covers variants of B1. The settings on record: with nck2_human NCK2, O43639. The source holds these as a separate data set.

In the case of Y1176F;Y1193F;Y1217F, the “effect of a mutation on the interaction” value in assay [1] is given as “decreasing interaction”; in assay [2] it was “disrupting interaction”; in assay [3] it was “disrupting interaction”; in assay [4] it was “disrupting interaction”.

In the case of Y1176F;Y1217F, the “effect of a mutation on the interaction” value in assay [1] was “decreasing interaction”.

With Y1193F;Y1217F, in assay [1], the “effect of a mutation on the interaction” value is listed as “decreasing interaction”.

The values above are taken from IntAct's records for PubMed 16525419.
